Assay results as given in the supplement of paper PMC10567573.
± gives the standard deviation.

Test: protein stability index of a GFP-peptide fusion (GPS, HEK-293T) (PSI 1-6); higher = more stable
[1] = treatment: DMSO, c terminus: a fixed tail appended
[2] = treatment: MLN4924 1 uM, 8 h, c terminus: a fixed tail appended
[3] = treatment: DMSO, c terminus: native
[4] = treatment: MLN4924 1 uM, 8 h, c terminus: native
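Further: 24-mer peptide tiles fused after GFP, lentivirally expressed, FACS-sorted into six equal bins by GFP/DsRed ratio, decoded by Illumina sequencing, PSI is the read-weighted mean bin number.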

Sequence	protein stability index [1]	protein stability index [2]	protein stability index [3]	protein stability index [4]
CPHTPEFSVTGGTEEKSSLLMSCL [RPAIN]	3.38 ± 0.22	3.49 ± 0.074		
LVNHVNIRLQAELEEGENPVPAFQ [SMG5]	4.04 ± 0.091	4.07 ± 0.17		
AVGGRLRLVPGGQRPADVPEPGRA [HAGHL]	4.22 ± 0.38	4.16 ± 0.43		
SRLLLLEQELKTVTYSLLKRLKER [SMAD6]	2.77 ± 0.34	2.55 ± 0.49		
FRFDKPKKSRSPASAEAPGDSGER [ZNF511]	4.95 ± 0.11	5.11 ± 0.38		
LQEKSQCALEEYVRSQYPNQPTRF [NR2F2]	3.16 ± 0.25	3.24 ± 0.24		
LVQLEDEITTLRQVLSAKERHLVE [TPD52L1]	2.85 ± 0.16	3.04 ± 0.44		
VHSSPVSSPSVSGPRRLVSCLSSQ [SPACA3]	3.38 ± 0.2	3.54 ± 0.18		
LCSVGASKAVFLWNMDKYTMIRKL [WSB1]	2.34 ± 0.4	2.17 ± 0.31		
DFVLEMNTAKSTSRVTAFLDDLSQ [NLN]	2.75 ± 0.26	2.72 ± 0.33		
MDPGWGQRDVGWAALLILFAASLL [C2CD2L]	2.34 ± 0.24	2.26 ± 0.31		
TLYTAKKYAVPALEAHCVEFLTKH [BTBD1]	2.7 ± 0.28	2.48 ± 0.12		
LRAIDFGTDEEEEEFIEEEDQEEE [TRIM63]	5.63 ± 0.15	5.65 ± 0.13		
RKGKDKENGSVSSSETPPPPPPPN [EIF5]	5.15 ± 0.2	5.22 ± 0.28		
QKLNPGFDLAKGNAGKVNLPKELP [PLAGL1]	4.27 ± 0.14	4.15 ± 0.3		
YHMFQREKVEVQLPELFHKIGVGA [KCNAB2]	2.52 ± 0.59	2.39 ± 0.45		
KFKESFAEMNRGSNEWKTVVGGAM [COX4I1]	3 ± 0.13	3.2 ± 0.29		
THSSVVLQGFDQLRLEGLLCDVTL [KLHL13]	2.43 ± 0.33	2.19 ± 0.19		
LRPRPASSISLPIGHLGCISLLS [DMRTC1]			2.47 ± 0.41	2.43 ± 0.33
TVQGKKGVYMTDITPQGVAMRAGV [PDZK1]	3.12 ± 0.079	3.32 ± 0.25		
NKINAGMYILSPAVLRRIQLQPTS [GMPPB]	2.24 ± 0.24	2.28 ± 0.38		
GFRLAEDGKRCRRKDVCKSTHHGC [MATN2]	3.99 ± 0.66	4.09 ± 0.42		
EMSEKRGPTSSNPRKRHREDSDVE [MLH1]	5.49 ± 0.44	5.49 ± 0.14		

Sequence	protein stability index [1]	protein stability index [2]	protein stability index [3]	protein stability index [4]
TARRSKRERREEDRAPAEQVPRSP [PWWP2B]	5.38 ± 0.26	5.16 ± 0.45		
DAISWYQKKIGAYDQQIWEKSIEQ [PHTF1]	2.77 ± 0.037	2.79 ± 0.34		
MFSFNMFDHPIPRVFQNRFSTQYR [UFD1]	2.13 ± 0.17	2.22 ± 0.22		
PQHQAGSDSLLTGMAFFKMREMFF [CNOT7]	2.13 ± 0.16	2.15 ± 0.099		
MSRQFTCKSGAAAKGGFSGCSAVL [KRT71]	2.59 ± 0.35	2.18 ± 0.43		
LGPGALHFDLRDDDDAEEEGPKRE [TCF25]	5.17 ± 0.29	5.54 ± 0.13		
DGITNGASWYSLSKGMQDFNYLHT [CPN1]	2.35 ± 0.13	2.43 ± 0.22		
CGSQLSSTKGSRSNLSTRDASILT [NETO1]	2.62 ± 0.2	2.65 ± 0.21		
DGKPFPELVLEQQLDREAQARHQL [PCDHGC5]	4.92 ± 0.33	5.04 ± 0.27		
QGPTPRYFTWDEVAQRSGCEERWL [FADS1]	3.43 ± 0.27	3.39 ± 0.24		
DGSTYKIELEGISVMVMREILDYI [GAN]	2.3 ± 0.39	1.93 ± 0.15		
ENVLAALEGLNLSILKAMGKTKKD [NECAB1]	3.12 ± 0.12	3.31 ± 0.18		
VDAAYANKVELQAKVESMDQEIKF [KRT71]	4.88 ± 0.41	4.87 ± 0.21		
YPSVILRDPLQTDTLQNDYFAIKQ [ETS1]	3.1 ± 0.41	3.3 ± 0.21		
GRLLFAGYNDYTINVWDVLKGSRV [GNB5]	2.48 ± 0.58	2.18 ± 0.17		
SINTHLGKEQSRRDDLEALGHMFM [CSNK1G3]	2.81 ± 0.28	3.03 ± 0.49		
FRNCGACVTLMQGHEGSVSSCHFA [WDR88]	2.85 ± 0.62	2.59 ± 0.37		
HIFNTLRSHLIDKGMLTSTTEDE [CDS2]			2.71 ± 0.042	3.23 ± 0.39
RKVKSTITLDGGVLVHVQKWDGKS [FABP4]	3 ± 0.23	3.15 ± 0.52		
SMCEHHLVPFVGKVHIGYLPNKQV [GCH1]	2.16 ± 0.38	2.29 ± 0.39		
VAVDFTWEEWQFLSPAQKDLYRDV [ZNF649]	2.54 ± 0.73	2.64 ± 0.22		
FNGNYKVDSPKNFNIAGTVVKYRR [ADAMTSL2]	3.14 ± 0.23	3.44 ± 0.36		
SGPEAARAGGWVSGEEFYMLTRRV [PKD2L1]	2.69 ± 0.29	2.96 ± 0.49		

Sequence	protein stability index [1]	protein stability index [2]	protein stability index [3]	protein stability index [4]
FQRRNMIEPRERAKFKRKYKVKLV [NOP53]	2.87 ± 0.46	3.39 ± 0.58		
PVTPQVGEGRKSRKFSRLSCLRRR [SMG5]	4.36 ± 0.068	4.34 ± 0.12		
MVVSREEVELAYQEAMFNMATLNR [SEPHS2]	2.93 ± 0.29	3.03 ± 0.2		
ELCCVAELDNPMQQKWTKPARAGS [C2CD2L]	3.37 ± 0.39	3.6 ± 0.2		
YPHFSHRPSTLQAASTPQAEEDWT [OAS1]	4.52 ± 0.27	4.76 ± 0.23		
QEAMKRLRGAKAFRLPGLSRRERE [FCHO1]	3.91 ± 0.25	4.13 ± 0.2		
KIRPDSSRPELLQPLNFVRFYLPL [GLT8D2]	2.19 ± 0.42	2.17 ± 0.18		
HLANHDDLISKSFQGSQGRAYLFN [YPEL3]	2.8 ± 0.075	3.03 ± 0.24		
LPVGTQLLTVTATDRDEGANGEVT [PCDHGA10]	5.32 ± 0.37	5.4 ± 0.23		
MVLLTMIARVADGLPLAASMQEDE [SEC22B]	3.26 ± 0.71	2.94 ± 0.2		
MSGGGVIRGPAGNNDCRIYVGNLP [SRSF1]	2.85 ± 0.29	2.96 ± 0.51		
AHHPLHPHLMQEHMGTNVIVANTM [HNF4A]	3.2 ± 0.23	3.21 ± 0.17		
ETKKVLGLQDTITAELVVIEDAAE [PALM]	4.92 ± 0.35	4.78 ± 0.32		
NPYHQPYISRKYFATRPGAIETAM [TPRG1]	2.22 ± 0.18	2.52 ± 0.25		
PPPPPGPPPPPGLPSDGDHQVPTT [WASL]	5.48 ± 0.26	5.63 ± 0.21		
EAQLLQLKVKCLNNLAASQLKLDH [FKBP8]	2.69 ± 0.26	2.95 ± 0.23		
CTLRQKLIFSPCSDCEEEEEEEEE [WEE1]	5.04 ± 0.27	5 ± 0.26		
RDSLTQPDEEPMHYGNIMYDRRVI [RSPH3]	3.62 ± 0.45	3.8 ± 0.23		
VVTSAREHIYDLRSLENYHFVDEH [CLINT1]	2.85 ± 0.51	3.15 ± 0.45		
LCIHTGRELRCKVFPIKHYQDKIR [TRIB1]	2.27 ± 0.52	2.18 ± 0.18		
GDDQPSETDHLSMEEEDPMPRQIS [TPRG1]	5.47 ± 0.17	5.64 ± 0.22		
SQNIAAETRAEDPPWFEGLESRFQ [DFFB]	4.46 ± 0.13	4.49 ± 0.079		
PRRRRPGCYAYRQNPEAIAAAAMY [MYORG]	2.78 ± 0.19	2.9 ± 0.34		

Sequence	protein stability index [1]	protein stability index [2]	protein stability index [3]	protein stability index [4]
PQALPEPMQESKAEGNNQAPGEEE [CHGA]	5.54 ± 0.24	5.5 ± 0.35		
APALPPGGTDPHGYHQVPGSAAPG [FOXJ1]	5.16 ± 0.18	5.38 ± 0.4		
LLDGLARRVGILGEELADVGGVLR [SCARA5]	2.64 ± 0.2	2.72 ± 0.4		
PALETQPQGDEEDIASRYPTLWTE [SMOC2]	4.78 ± 0.34	4.85 ± 0.54		
AEAEPEDQDEGEWGLDQEQVFSLG [ZBED1]	5.34 ± 0.44	5.52 ± 0.44		
YQTEQSLRLLVESDINSIRRILDE [KRT34]	2.85 ± 0.18	2.97 ± 0.42		
ECNECGKAFSRSSGLFNHRGIHNI [ZSCAN9]	2.48 ± 0.59	2.16 ± 0.31		
RMTGGRPPLPPPDDPATLGPHLGL [DYRK1B]	4.2 ± 0.2	4.26 ± 0.18		
GSKARAEGRGPVTPLHLDLTQLHR [PLEKHN1]	3.52 ± 0.061	3.835 ± 0.001		
PDGKEMAEEYDEKTSELLVRKWRV [DPCD]	4.31 ± 0.23	4.41 ± 0.11		
SKSTQFEYAWCLVRSKYNDDIRKG [FIS1]	2.26 ± 0.34	2.55 ± 0.56		
NHLLESMPLREGSSFQDLLGDALA [HES6]	3.34 ± 0.31	3.4 ± 0.31		
ERDREREPEAASSRGSPVRVKREF [USP39]	5.4 ± 0.26	5.39 ± 0.17		
SAGEQKTERMDKVGDALEEVLSKA [GADD45A]	5.58 ± 0.18	5.41 ± 0.26		
SFLWQRGRKFLQKHLNASNPTEPA [TOR1AIP2]	2.86 ± 0.13	3.05 ± 0.17		
ARIRSHSWLESCIVGWRCRVGQWV [GMPPB]	2.27 ± 0.3	2.262 ± 0.009		
RAGEGFIICYSITDRRSFHEVREF [RIT1]	3.04 ± 0.81	2.48 ± 0.71		
VRKEDMTYAVRKLDNTKFRSHEGE [SRSF1]	4.32 ± 0.13	4.13 ± 0.16		
KAFLTKTMLIVHHRTHTGERPYGC [ZNF649]	2.45 ± 0.3	2.03 ± 0.23		
SEEKGHPQEESEESNVSMASLGEK [CHGB]	5.48 ± 0.21	5.61 ± 0.19		
